One molecule from patent US20260009052, “CAS12 PROTEINS AND USES THEREOF” (GUANGZHOU REFORGENE MEDICINE CO., LTD., published 2026) can be followed below.

Substitutions are numbered along the chain they refer to.

In data set [1] the target is T1, C12-279 Mut-02-1-426-846-858-860 (C12-279-V4) (synthetic construct, I1R,Q186R,D352R,D426R,846R,858R,L860R).
T1 chain: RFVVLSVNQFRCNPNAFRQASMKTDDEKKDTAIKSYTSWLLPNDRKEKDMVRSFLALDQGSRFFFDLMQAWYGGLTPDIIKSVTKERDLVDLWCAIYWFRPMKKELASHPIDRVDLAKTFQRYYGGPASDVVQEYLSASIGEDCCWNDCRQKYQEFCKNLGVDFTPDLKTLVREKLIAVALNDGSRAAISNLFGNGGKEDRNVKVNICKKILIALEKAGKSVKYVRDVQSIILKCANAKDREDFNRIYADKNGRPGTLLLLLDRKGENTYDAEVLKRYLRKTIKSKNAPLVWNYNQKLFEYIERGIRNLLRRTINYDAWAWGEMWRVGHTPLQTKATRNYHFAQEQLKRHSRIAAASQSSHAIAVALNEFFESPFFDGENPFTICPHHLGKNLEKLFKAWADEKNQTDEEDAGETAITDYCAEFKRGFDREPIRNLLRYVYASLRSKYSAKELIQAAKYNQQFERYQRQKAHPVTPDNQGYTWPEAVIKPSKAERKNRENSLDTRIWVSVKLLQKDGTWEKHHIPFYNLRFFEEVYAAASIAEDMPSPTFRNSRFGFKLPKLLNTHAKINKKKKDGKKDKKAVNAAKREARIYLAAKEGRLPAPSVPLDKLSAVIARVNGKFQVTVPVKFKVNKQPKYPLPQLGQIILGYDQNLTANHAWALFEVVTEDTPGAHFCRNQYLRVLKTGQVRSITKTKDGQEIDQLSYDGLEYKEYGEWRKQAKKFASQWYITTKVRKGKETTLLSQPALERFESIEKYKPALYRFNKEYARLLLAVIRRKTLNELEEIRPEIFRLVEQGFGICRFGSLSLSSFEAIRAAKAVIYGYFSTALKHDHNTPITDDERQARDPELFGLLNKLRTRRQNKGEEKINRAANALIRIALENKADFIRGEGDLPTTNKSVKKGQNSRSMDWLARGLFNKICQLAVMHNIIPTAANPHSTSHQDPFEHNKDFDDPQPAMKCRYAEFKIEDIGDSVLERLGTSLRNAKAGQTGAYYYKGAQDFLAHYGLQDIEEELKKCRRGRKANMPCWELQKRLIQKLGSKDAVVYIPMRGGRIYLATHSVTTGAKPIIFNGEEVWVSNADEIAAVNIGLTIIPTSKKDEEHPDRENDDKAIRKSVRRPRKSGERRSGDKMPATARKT
Nature of the data set: cell_activity; PAM TTG; mutant PAM 5'-WTN-3' by Example 17.

The next data set has as its target T2, C12-279 Mut-03 (synthetic construct, G184R,Q186R,D352R).
T2 chain: T1 chain with R1I, G184R, R426D, R846F, R858E, R860L
Nature of the data set: cell_activity; PAM TTG. The procedure: Transfection: transfection was performed 12-14 h after plating. 1.5 μL PEI (Yeasen Biotechnology, 40815ES03, Polyethylenimine Linear (PEI) MW25000) and 500 ng mutation clone plasmid were added to 100 μL Opti-MEM per well of the 24-well plate, mixed, and added to the NAAN cell line for cell transfection after placing at room temperature for 20 min. After overnight transfection, a fresh culture medium was replaced, and the culture was continued for 72 h, followed by flow cytometry. Editing efficiencies of different mutant clones were characterized by the proportion of GFP-positive cells.
Editing efficiency of some selected mutants was tested in Reporter3 cell line using the same manner as described for the NAAN reporter system, except that the cell line was changed from NAAN cell line to Reporter3 cell line.

B1: C12-279 Reporter3 sgRNA ; Reporter3 target (ssRNA ; dsDNA)
RNA: GUAAUGCGUCUCCCAUUGACGCCUCACCUCGCGACGCAAUGAUG
DNA 1: CTCACCTCGCGACGCAATGATG
DNA 2: CATCATTGCGTCGCGAGGTGAG
As to B1, the binding signal was 3.88 fold of C12-279 in data set [1] and 2.28 fold of C12-279 with C12-279 Mut-03.
